In article PMC5324060, “Evolutionary, computational, and biochemical studies of the salicylaldehyde dehydrogenases in the naphthalene degradation pathway” (Scientific Reports, 2017):
Substitutions are numbered along the chain they refer to.

What was measured:
[1] = target: SALDan (Alteromonas naphthalenivorans, UniProt F5Z5S7); assay: Kinetics assay of wild-type recombinant SALDan (NADH appearance at 340 nm); assay type: biochemical
Method: (§1) The activity of the purified proteins was determined using SAL as a substrate. A reaction volume of 500 μL was prepared in a microfuge tube containing purified SALDan (0.1 μM), SAL (100 μM), and NAD^+ (100 μM) dissolved in 50 mM HEPES (pH 7.5) containing 150 mM NaCl. The SALDan activity was monitored as the rate of appearance of NADH at 340 nm spectrophotometrically. The specific activity of the enzyme (units.mg^−1.min^−1) was expressed as the amount of enzyme required to produce 1 μM of NADH under the assay conditions. The influence of pH on the activity was determined using the protocol described above, with the exception of replacing the […] buffer with 50 mM sodium acetate (pH 3.0–5.0), 50 mM 2-(N-morpholino)ethanesulfonic acid (pH 5.0–7.5), 50 mM HEPES (pH 8.0–8.5), 50 mM glycine (pH 9.0–10.0), or 50 mM sodium phosphate (pH 11.0)[52]. All assays were performed at the optimal temperature. To determine the influence of temperature on the enzymatic activity, the reactions were performed at 15, 20, 25, 30, 35, 40, and 45 °C, respectively.
(§2) For kinetic studies of aldehydes, the initial velocities of the enzymatic reactions were examined by varying the concentrations of various aromatic as well as aliphatic aldehydes in the presence of NAD^+ (100 μM) and the enzyme (0.1 μM) under optimal conditions. For substrates that absorb at 340 nm, thus interfering with the calculation of the initial rate, their molar coefficients (ε) were calculated as described previously[64] and are presented in Table S1. The apparent kinetic parameters were calculated using the equation: […]
(§3) The apparent kinetic parameters for NAD^+ were determined at a fixed concentration of SAL (50 μM) and a varying concentration of NAD^+ (0–500 μM). The apparent Km and Vmax values were calculated by using the equation: […]
(§4) All the activity data were determined by three separate experiments with at least three technical replicates.

[2] = target: T1, SALDan N149A (Alteromonas naphthalenivorans, UniProt F5Z5S7, N149A); assay: Kinetics assay of SALDan mutant N149A; assay type: biochemical
T1 sequence (F5Z5S7 1-483 N149A): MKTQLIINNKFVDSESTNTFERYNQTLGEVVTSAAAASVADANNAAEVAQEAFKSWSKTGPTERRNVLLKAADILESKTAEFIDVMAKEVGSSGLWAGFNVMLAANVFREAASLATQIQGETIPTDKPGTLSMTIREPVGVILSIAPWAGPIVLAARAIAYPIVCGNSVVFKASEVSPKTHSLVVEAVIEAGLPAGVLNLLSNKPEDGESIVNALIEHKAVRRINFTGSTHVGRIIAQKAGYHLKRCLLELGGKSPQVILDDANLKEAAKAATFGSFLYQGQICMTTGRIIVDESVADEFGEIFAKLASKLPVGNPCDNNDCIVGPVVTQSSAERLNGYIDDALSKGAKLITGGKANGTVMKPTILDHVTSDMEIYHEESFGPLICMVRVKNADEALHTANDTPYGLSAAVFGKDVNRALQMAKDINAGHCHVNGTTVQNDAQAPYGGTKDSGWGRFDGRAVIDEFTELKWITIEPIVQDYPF
Source text: The primers used for the single amino acid mutant were as follows: N149A, forward primer, 5′-ATAGCACCGTGGGCCGGGCCTATTGTATTA-3′; reverse primer, 5′-TAATACAATAGGCCCGGCCCACGGTGCTAT-3′; V153A, forward primer, 5′-AATGGGCCTATTGTATTAGCGGCTCGG-3′; reverse primer, 5′-CCGAGCCGCTAATACAATAGGCCCATT-3′; E175A, forward primer, 5′-[…]-3′, reverse primer, 5′-GTTGGGACAGTCTTCCAGCCC-3′; E175A, forward primer, 5′-ATGCTCCACCAAATTGGGCAC-3′; reverse primer, 5′-TTTAGGACTTACTTCTGAAGCTTTAAA-3′. The PCR was performed using Pfu polymerase, and the cycling parameters were: 95 °C for 5 min (one cycle), 95 °C for 30 s, and 68 °C for 12 min (12 cycles). […]
(§5) The activity of the purified proteins was determined using SAL as a substrate. […] The SALDan activity was monitored as the rate of appearance of NADH at 340 nm spectrophotometrically. The specific activity of the enzyme (units.mg^−1.min^−1) was expressed as the amount of enzyme required to produce 1 μM of NADH under the assay conditions. The influence of pH on the activity was determined using the protocol described above, with the exception of replacing the Tris-HCl buffer with 50 mM sodium acetate (pH 3.0–5.0), 50 mM 2-(N-morpholino)ethanesulfonic acid (pH 5.0–7.5), 50 mM HEPES (pH 8.0–8.5), 50 mM glycine (pH 9.0–10.0), or 50 mM sodium phosphate (pH 11.0)[52]. […]

[3] = target: T2, SALDan V153A (Alteromonas naphthalenivorans, UniProt F5Z5S7, V153A); assay: Kinetics assay of SALDan mutant V153A; assay type: biochemical
T2 sequence (F5Z5S7 1-483 V153A): T1 sequence (F5Z5S7 1-483 N149A) with A149N, V153A
Source text: (§6) The primers used for the single amino acid mutant were as follows: N149A, forward primer, 5′-ATAGCACCGTGGGCCGGGCCTATTGTATTA-3′; reverse primer, 5′-TAATACAATAGGCCCGGCCCACGGTGCTAT-3′; V153A, forward primer, 5′-AATGGGCCTATTGTATTAGCGGCTCGG-3′; reverse primer, 5′-CCGAGCCGCTAATACAATAGGCCCATT-3′; E175A, forward primer, 5′-[…]-3′, reverse primer, 5′-GTTGGGACAGTCTTCCAGCCC-3′; E175A, forward primer, 5′-ATGCTCCACCAAATTGGGCAC-3′; reverse primer, 5′-TTTAGGACTTACTTCTGAAGCTTTAAA-3′. The PCR was performed using Pfu polymerase, and the cycling parameters were: 95 °C for 5 min (one cycle), 95 °C for 30 s, and 68 °C for 12 min (12 cycles). After amplification, the PCR mixture was digested with DpnI and then transformed into E. coli BL21(DE3) by electroporation. The mutants were confirmed by DNA sequencing.
as §5, §2

[4] = target: T3, SALDan E175A (Alteromonas naphthalenivorans, UniProt F5Z5S7, E175A); assay: Kinetics assay of SALDan mutant E175A; assay type: biochemical
T3 sequence (F5Z5S7 1-483 E175A): T1 sequence (F5Z5S7 1-483 N149A) with A149N, E175A
Source text: as §6, §1, §2, §3, §4

[5] = target: the molecule itself; assay: cross-linking; purified SALDan (0.5 mg/ml) with 0.1% aldehyde for various periods at 25 °C, quenched with 1 M Tris-HCl, SDS-PAGE and Coomassie staining
[6] = substrate: O=Cc1cccc(Cl)c1; assay: purified protein, by the assay type; settings: other: wild-type; aldehyde varied at NAD^+ 100 μM, enzyme 0.1 μM; for NAD^+: SAL fixed 50 μM, NAD^+ 0–500 μM; 45.0 °C
[7] = substrate: O=Cc1ccc(Cl)cc1; assay: purified protein, by the assay type; settings: other: wild-type; aldehyde varied at NAD^+ 100 μM, enzyme 0.1 μM; for NAD^+: SAL fixed 50 μM, NAD^+ 0–500 μM; 45.0 °C
[8] = substrate: O=Cc1ccc([N+](=O)[O-])cc1; assay: purified protein, by the assay type; settings: other: wild-type; aldehyde varied at NAD^+ 100 μM, enzyme 0.1 μM; for NAD^+: SAL fixed 50 μM, NAD^+ 0–500 μM; 45.0 °C
[9] = substrate: O=Cc1ccc2ccccc2c1; assay: Kinetics assay of wild-type recombinant SALDan (NADH appearance at 340 nm); assay type: biochemical, Alteromonas naphthalenivorans; settings: other: wild-type; aldehyde varied at NAD^+ 100 μM, enzyme 0.1 μM; for NAD^+: SAL fixed 50 μM, NAD^+ 0–500 μM; 45.0 °C
[10] = substrate: O=Cc1ccccc1Cl; assay: as above; assay type: biochemical, Alteromonas naphthalenivorans; settings: other: wild-type; aldehyde varied at NAD^+ 100 μM, enzyme 0.1 μM; for NAD^+: SAL fixed 50 μM, NAD^+ 0–500 μM; 45.0 °C
[11] = substrate: O=Cc1ccccc1O; assay: as above; assay type: biochemical, Alteromonas naphthalenivorans; settings: other: wild-type; aldehyde varied at NAD^+ 100 μM, enzyme 0.1 μM; for NAD^+: SAL fixed 50 μM, NAD^+ 0–500 μM; 45.0 °C
[12] = substrate: NC(=O)c1ccc[n+]([C@@H]2O[C@H](COP(=O)([O-])OP(=O)(O)OC[C@H]3O[C@@H](n4cnc5c(N)ncnc54)[C@H](O)[C@@H]3O)[C@@H](O)[C@H]2O)c1; assay: as above; assay type: biochemical, Alteromonas naphthalenivorans; settings: other: wild-type; aldehyde varied at NAD^+ 100 μM, enzyme 0.1 μM; for NAD^+: SAL fixed 50 μM, NAD^+ 0–500 μM; 45.0 °C
[13] = substrate: O=CCCCC=O; assay: as above; assay type: biochemical, Alteromonas naphthalenivorans; settings: other: wild-type; aldehyde varied at NAD^+ 100 μM, enzyme 0.1 μM; for NAD^+: SAL fixed 50 μM, NAD^+ 0–500 μM; 45.0 °C
[14] = target: the molecule itself; assay: SEC; purified SALDan on a Superdex 200 10/300 GL column, against standards ferritin, catalase, alcohol dehydrogenase, albumin, ovalbumin; one peak at approximately 160 kDa (monomer approximately 53 kDa)

SALDan, sequence (F5Z5S7 entry or part of it): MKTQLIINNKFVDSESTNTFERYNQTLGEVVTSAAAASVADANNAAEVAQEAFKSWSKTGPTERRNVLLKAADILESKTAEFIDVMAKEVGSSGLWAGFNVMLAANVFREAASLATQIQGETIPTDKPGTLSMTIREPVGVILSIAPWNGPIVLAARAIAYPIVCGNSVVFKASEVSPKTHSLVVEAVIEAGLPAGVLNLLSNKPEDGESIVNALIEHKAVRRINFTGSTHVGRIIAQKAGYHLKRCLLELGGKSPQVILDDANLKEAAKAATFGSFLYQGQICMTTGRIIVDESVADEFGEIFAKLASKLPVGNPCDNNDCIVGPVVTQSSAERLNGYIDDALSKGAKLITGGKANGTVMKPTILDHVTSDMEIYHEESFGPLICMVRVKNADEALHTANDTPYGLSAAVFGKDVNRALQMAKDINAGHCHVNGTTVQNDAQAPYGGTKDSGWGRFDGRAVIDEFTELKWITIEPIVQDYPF

## O=Cc1ccccc1O [Salicylaldehyde]
[1]
  Ki: 379 ± 45.2 µM
[1]; wild-type, assayed at 200 μM substrate, substrate inhibition
  activity relative to the maximal velocity: approximately 80%
[1]; wild-type, velocity versus substrate plot
  substrate concentration at which the highest velocity is achieved: 40 µM
[2]
  Ki: 447 ± 52.6 µM
[2]; N149A mutant
  change of catalytic efficiency compared with the wild-type protein: decreased by about three times
[3]
  Ki: 428 ± 49.4 µM
[3]; V153A mutant versus wild-type
  effect on the kinetic parameters: no significant effect
[4]
  Ki: 462 ± 51.4 µM
[4]; E175A mutant versus wild-type
  change of apparent Km value: increased
  change of kcat/Km (catalytic efficiency): decreased by six times

B1: Salicylaldehyde dehydrogenase from Alteromonas naphthalenivorans (SALDan) (enzyme, UniProt F5Z5S7 1-483, looked up)
chain: T1 sequence (F5Z5S7 1-483 N149A) with A149N
notes: Salicylaldehyde dehydrogenase (EC 1.2.1.65) of Alteromonas naphthalenivorans, UniProt F5Z5S7; amplified from genomic DNA with primers from the ATG start codon to the stop codon; about 53 kDa on SDS-PAGE; Cloned between BamHI and HindIII of pET28a; also called SAL dehydrogenase; WT; source: E. coli BL21 (DE3), pET28a, purified (Ni-NTA column)
[5]
  stoichiometry N: 3
[6]
  Km: 4.8 ± 0.7 µM
  Vmax: 56.8 µmol/min/mg
  kcat: 142 s⁻¹
  kcat/Km: 2.96e+07 M⁻¹ s⁻¹
[7]
  Km: 5.5 ± 1.1 µM
  Vmax: 74.2 µmol/min/mg
  kcat: 186 s⁻¹
  kcat/Km: 3.37e+07 M⁻¹ s⁻¹
[8]
  Km: 6.5 ± 0.9 µM
  Vmax: 32.3 µmol/min/mg
  kcat: 80.2 s⁻¹
  kcat/Km: 1.23e+07 M⁻¹ s⁻¹
[9]
  Km: 3.4 ± 0.5 µM
  Vmax: 61.4 µmol/min/mg
  kcat: 153 ± 14.4 s⁻¹
  kcat/Km: 4.5e+07 ± 4.4e+06 M⁻¹ s⁻¹
[10]
  Km: 3.2 ± 0.3 µM
  Vmax: 45.6 µmol/min/mg
  kcat: 114 ± 17.2 s⁻¹
  kcat/Km: 3.57e+07 ± 4.5e+06 M⁻¹ s⁻¹
[11]
  Km: 3.8 ± 0.5 µM
  Vmax: 49.5 µmol/min/mg
  kcat: 124 ± 13.6 s⁻¹
  kcat/Km: 3.25e+07 ± 4.2e+06 M⁻¹ s⁻¹
[12]
  Km: 39.5 ± 3.2 µM
  Vmax: 94.1 µmol/min/mg
  kcat: 234 ± 24.2 s⁻¹
  kcat/Km: 5.9e+06 ± 500000 M⁻¹ s⁻¹
[13]
  Km: 560 ± 46.0 µM
  Vmax: 11.6 µmol/min/mg
  kcat: 29.6 ± 3.7 s⁻¹
  kcat/Km: 53000 M⁻¹ s⁻¹
[14]
  stoichiometry N: 3 subunits
